Reference: patent publication US20240034800A1 (MEDYTOX, published 2024)
Where “and” joins values, the source holds several entries; their conditions need not be identical. Equal values may be shown once.

T1: Monkey HVEM-Fc (Macaca fascicularis, UniProt A0A2K5W0R1)
T1 construct: part fused to Fc; also called cynomolgus monkey HVEM-hFc
T1 sequence (fusion chain): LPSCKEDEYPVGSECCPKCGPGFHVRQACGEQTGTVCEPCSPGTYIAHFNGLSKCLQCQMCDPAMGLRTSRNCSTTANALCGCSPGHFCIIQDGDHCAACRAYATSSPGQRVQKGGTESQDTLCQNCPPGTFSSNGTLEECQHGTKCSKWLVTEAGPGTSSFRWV

T2: human HVEM-Fc protein (human, UniProt Q92956 39-202, limits assumed)
T2 construct: not shown: Fc
T2 sequence (looked up): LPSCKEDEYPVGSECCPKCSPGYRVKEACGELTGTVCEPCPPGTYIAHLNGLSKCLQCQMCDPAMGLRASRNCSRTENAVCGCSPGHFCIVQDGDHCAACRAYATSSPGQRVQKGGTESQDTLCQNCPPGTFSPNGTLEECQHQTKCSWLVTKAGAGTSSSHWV

T3: Mouse HVEM-Fc (mouse, UniProt Q80WM9)
T3 construct: part fused to Fc; also called mouse HVEM-mFc; mHVEM
T3 sequence (fusion chain, looked up): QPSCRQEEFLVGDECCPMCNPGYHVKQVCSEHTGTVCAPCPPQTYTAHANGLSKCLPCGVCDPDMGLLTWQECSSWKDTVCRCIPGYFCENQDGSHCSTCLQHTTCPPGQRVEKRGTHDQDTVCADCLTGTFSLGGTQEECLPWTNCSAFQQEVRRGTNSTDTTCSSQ

B1: HVEM001 (antibody, human IgG4 S228P, kappa, V domains shown)
VH: EVQLLESGGGLVQPGGSLRLSCAASGFTFSNYAMHWVRQAPGKGLEWVSNINPSGGSTTYAQEFEDRFTISRDNSKNTLYLQMNSLRAEDTAVYYCATRSRQDSWGYFDIWGQGTLVTVSS
VL: EIVLTQSPGTLSLSPGERATLSCRASRSISNYLAWYQQKPGQAPRLLIYGASTRATGIPDRFSGSGSGTDFTLTISRLEPEDFAVYYCQQYGSSPPLTFGQGTKVEIKR
B2: HVEM032 (antibody, human IgG4 S228P, kappa, V domains shown)
VH: EVQLLESGGGLVQPGGSLRLSCAASGFTFSNYAIHWVRQAPGKGLEWVSTISSPGSTINYADSVKGRFTISRDNSKNTLYLQMNSLRAEDTAVYYCASGYLYPAMDVWGQGTLVTVSS
VL: EIVLTQSPGTLSLSPGERATLSCRASRSVGKYLSWYQQKPGQAPRLLIYGASKLQSGIPDRFSGSGSGTDFTLTISRLEPEDFAVYYCQQYGSWPPFTFGQGTKVEIKR
B3: HVEM040 (antibody, human IgG4 S228P, kappa, V domains shown)
VH: EVQLLESGGGLVQPGGSLRLSCAASGFTFSNYGMSWVRQAPGKGLEWVSSIYYSGDTYYNPSLESRFTISRDNSKNTLYLQMNSLRAEDTAVYYCASGSNAFDIWGQGTLVTVSS
VL: EIVLTQSPGTLSLSPGERATLSCRASRSVGKYLAWYQQKPGQAPRLLIYGASSRTTGIPDRFSGSGSGTDFTLTISRLEPEDFAVYYCQQYGSSPPVTFGQGTKVEIKR
B4: HVEM041 (antibody, human IgG4 S228P, kappa, V domains shown)
VH: EVQLLESGGGLVQPGGSLRLSCAASGFTFSSYAMSWVRQAPGKGLEWVSEISQSGSSNYNPSLKSRFTISRDNSKNTLYLQMNSLRAEDTAVYYCATGRWRFDYWGQGTLVTVSS
VL: EIVLTQSPGTLSLSPGERATLSCRASRSVGKYLAWYQQKPGQAPRLLIYGASTRATGIPDRFSGSGSGTDFTLTISRLEPEDFAVYYCQQYGSSPPVTFGQGTKVEIKR
B5: HVEM011 (antibody, human IgG4 S228P, kappa, V domains shown)
VH: EVQLLESGGGLVQPGGSLRLSCAASEFTFSSYAMHWVRQAPGKGLEWVSSITSASSYIDYADSVKGRFTISRDNSKNTLYLQMNSLRAEDTAVYYCARGTRGLFDHWGQGTLVTVSS
VL: EIVLTQSPGTLSLSPGERATLSCRASRSVGKYLAWYQQKPGQAPRLLIYLGSNRASGIPDRFSGSGSGTDFTLTISRLEPEDFAVYYCQQYGSSPPITFGQGTKVEIKR
notes: Full-size human IgG4 (S228P) kappa antibody made in ExpiCHO-S; human IL-2 signal peptide is cleaved and left out; also called HVEM011 antibody
B6: HVEM039 (antibody, human IgG4 S228P, kappa, V domains shown)
VH: EVQLLESGGGLVQPGGSLRLSCAASGFTFSSYGMNWVRQAPGKGLEWVSIINPSGDTTTYAQKFQGRFTISRDNSKNTLYLQMNSLRAEDTAVYYCARGRGAFDYWGQGTLVTVSS
VL: EIVLTQSPGTLSLSPGERATLSCRASRSVGKYLAWYQQKPGQAPRLLIYGATSRATGIPDRFSGSGSGTDFTLTISRLEPEDFAVYYCQQYGSSPPVTFGQGTKVEIKR
B7: HVEM021 (antibody, human IgG4 S228P, kappa, V domains shown)
VH: EVQLLESGGGLVQPGGSLRLSCAASGFTFSTFAMHWVRQAPGKGLEWVSSIYPSGNTHYKPSLKSRFTISRDNSKNTLYLQMNSLRAEDTAVYYCARRHPGGGWIFDYWGQGTLVTVSS
VL: EIVLTQSPGTLSLSPGERATLSCRASRSVGKYLAWYQQKPGQAPRLLIYGASTRATGIPDRFSGSGSGTDFTLTISRLEPEDFAVYYCQQYGSSPPVTFGQGTKVEIKR
notes: Full-size human IgG4 (S228P) kappa antibody made in ExpiCHO-S; human IL-2 signal peptide is cleaved and left out; also called HVEM021 antibody
B8: HVEM018 (antibody, human IgG4 S228P, kappa, V domains shown)
VH: EVQLLESGGGLVQPGGSLRLSCAASGFTFSSYSMNWVRQAPGKGLEWVSAISGSGGGTYSADSVKGRFTISRDNSKNTLYLQMNSLRAEDTAVYYCARGKAYGYFDYWGQGTLVTVSS
VL: EIVLTQSPGTLSLSPGERATLSCRASRSVGKYLAWYQQKPGQAPRLLIYAASTLQSGIPDRFSGSGSGTDFTLTISRLEPEDFAVYYCQQYGSSPPVIFGQGTKVEIKR
B9: HVEM030 (antibody, human IgG4 S228P, kappa, V domains shown)
VH: EVQLLESGGGLVQPGGSLRLSCAASGFTFSGYYWTWVRQAPGKGLEWVSTISASGDSTYYADSVKGRFTISRDNSKNTLYLQMNSLRAEDTAVYYCAHDRTFGYFDYWGQGTLVTVSS
VL: EIVLTQSPGTLSLSPGERATLSCRASRSVGKYLAWYQQKPGQAPRLLIYAASSLQSGIPDRFSGSGSGTDFTLTISRLEPEDFAVYYCQQYGSSPPITFGQGTKVEIKR
B10: HVEM004 (antibody, human IgG4 S228P, kappa, V domains shown)
VH: EVQLLESGGGLVQPGGSLRLSCAASGFTFSSYAMSWVRQAPGKGLEWVSSISGSGGKTYYADSVRGRFTISRDNSKNTLYLQMNSLRAEDTAVYYCAKGVGYTTSGRFDYWGQGTLVTVSS
VL: EIVLTQSPGTLSLSPGERATLSCRASRSISSYLAWYQQKPGQAPRLLIYGVSTRATGIPDRFSGSGSGTDFTLTISRLEPEDFAVYYCQQYGSWPPFTFGQGTKVEIKR
B11: HVEM017 (antibody, human IgG4 S228P, kappa, V domains shown)
VH: EVQLLESGGGLVQPGGSLRLSCAASGFTFSTNYMSWVRQAPGKGLEWVSLISYSGSNKYYADSVKGRFTISHDNSKNTLYLQMNSLRAEDTAVYYCARGRGNTISGTFDLWGQGTLVTVSS
VL: EIVLTQSPGTLSLSPGERATLSCRASRSVGKYLAWYQQKPGQAPRLLIYSASTLSSGIPDRFSGSGSGTDFTLTISRLEPEDFAVYYCQQYGSSPPITFGQGTKVEIKR
notes: also called HVEM0017

How the values were obtained:
Monkey HVEM-Fc = molecular target: T1, Monkey HVEM-Fc; assay: ELISA, coated cynomolgus monkey HVEM-hFc, anti-human IgG4-HRP
Protocol: (§1) The binding ability of the full-size human antibody to HVEM was analyzed using an ELISA testing method. 0.2 μg/ml of each of human HVEM-hFc, cynomolgus monkey HVEM-hFc, and mouse HVEM-mFc proteins was coated on a 96-half-well plate for immunosorbent assay. To inhibit non-specific binding, reaction was carried out in phosphate buffered saline (PBS) containing 3% bovine serum albumin (BSA) for 1 hour, followed by treatment with serially diluted antibodies for 1 hour. To measure the amounts of the bound antibodies, horse radish peroxidase (HRP)-conjugated anti-human IgG4 antibody was used, and for the activity of HRP, a color reaction was induced using a 3,3′,5,5′-tetramethylbenzidine (TMB) substrate solution, and the reaction was terminated with 1N sulfuric acid. […] In the middle of each step, washing was performed three times using PBS (PBST) containing 0.1% Triton X-100. The binding ability of the antibodies was derived using SigmaPlot.

human HVEM-Fc protein [1] = molecular target: T2, human HVEM-Fc protein; assay: ELISA, coated human HVEM-hFc, anti-human IgG4-HRP
Protocol: as §1

human HVEM-Fc protein [2] = molecular target: T2, human HVEM-Fc protein; assay: Octet BLI
Mouse HVEM-Fc [3] = molecular target: T3, Mouse HVEM-Fc; assay: ELISA, coated mouse HVEM-mFc, anti-human IgG4-HRP
Protocol: as §1

Mouse HVEM-Fc [4] = molecular target: T3, Mouse HVEM-Fc; assay: ELISA, coated mouse HVEM-mFc 0.2 ug/ml, anti-human IgG4-HRP, SigmaPlot fit
Protocol: as §1

human HVEM-Fc protein [5] = molecular target: T2, human HVEM-Fc protein; assay: Octet BLI (column kdis)
human HVEM-Fc protein [6] = molecular target: T2, human HVEM-Fc protein; assay: ELISA, coated human HVEM-hFc 0.2 ug/ml, anti-human IgG4-HRP, SigmaPlot fit
Protocol: as §1

human HVEM-Fc protein [7] = molecular target: T2, human HVEM-Fc protein; assay: flow cytometry competition: human HVEM-Fc 1 ug/ml on BTLA-expressing Jurkat cells, antibody 10 or 100 nM; blocked ligand BTLA
Protocol: For flow cytometry, the stained cell lines were fixed on ice for 20 minutes using PBS containing 2% formaldehyde and stored in a refrigerator until flow cytometry.

Binder	binding affinity (ELISA fit; table in pM) (Monkey HVEM-Fc) [pM]	binding affinity (ELISA fit; table in pM) (human HVEM-Fc protein [1]) [pM]	Kd (human HVEM-Fc protein [2])	kon (human HVEM-Fc protein [2])	binding affinity (ELISA fit; table in pM) (Mouse HVEM-Fc [3]) [pM]	binding affinity (ELISA fit) (Mouse HVEM-Fc [4]) [pM]	koff (human HVEM-Fc protein [5])	binding affinity (ELISA fit) (human HVEM-Fc protein [6]) [pM]	binding result (human HVEM-Fc protein [7])
B1	341	32.8	0.0263 nM	287000 M⁻¹ s⁻¹	228	151	7.55e-06 s⁻¹	22	–
B2	–	–	–	–	–	114	–	16.9	–
B3	–	–	–	–	–	126	–	20	–
B4	–	–	–	–	–	141	–	20.1	–
B5	65.9	25.9	0.0225 nM and 0.0146 nM	425000 M⁻¹ s⁻¹ and 598000 M⁻¹ s⁻¹	203	219	9.53e-06 s⁻¹ and 8.75e-06 s⁻¹	23.4	–
B6	–	–	–	–	–	334	–	19.5	–
B7	61.8	32.5	0.0344 nM	471000 M⁻¹ s⁻¹	55.6	–	1.62e-06 s⁻¹	–	–
B8	–	–	–	–	–	158	–	25.9	–
B9	–	–	–	–	–	16.6	–	16.1	–
B10	–	–	–	–	–	–	–	–	binds
B11	–	–	–	–	–	112	–	21.5	–
